Measurements reported in PMC12624773, “Receptor activity–modifying protein 3 enhances GLP-1-mediated insulin secretion” (The Journal of Biological Chemistry, 2025).
Entries after “also recorded” stand apart in the source; their conditions may differ. Numbered stars: 1 amine (or outer) side, 2 acyl side, 3 side chain; on linkers, the order of the positions; unused ones are H or OH. Bridge positions count the residues as written; N and C are the ends. Square brackets hold non-standard residues; d marks the D form. Peptide text beside a SMILES is read from it. X1 = CC(=O)NC(C(=O)OC(C(C)C)C(N[*:1])C(=O)[*:2])C(O)C(C)C; PhLac = O=C(O)[CH](O)Cc1ccccc1; NMeT = CN[CH](C(=O)O)[CH](C)O; NMeA = CN[CH](C)C(=O)O; NMeDha = C=C(NC)C(=O)O

How the values were obtained:
[1] = ref [3]; cited from earlier work
Excerpt: The incretin effect, whereby oral glucose elevates plasma insulin levels to a greater degree than intravenous administration, was first observed in 1964 ([1]). This is mediated by incretin hormones, the best known of which are GLP-1 and the glucose-dependent insulinotropic polypeptide (GIP). […] However, newer m ...

INS-1 832/3 cells [2] = assay: Glucose-stimulated insulin secretion in INS-1 832/3 cells, GLP-1R agonists; type: cell-based, rat; details: 10 nM GLP-1; for effect of inhibitor on GLP-1-mediated insulin secretion: vector- and RAMP3-transfected, 30 min pretreatment, normalized to 10 nM GLP-1 + 0.1% DMSO
Nluc–GLP-1R [3] = target: T1, Nluc–GLP-1R (Homo sapiens, UniProt P43220)
GCGR with RAMP2 = details: GCGR coexpressed with RAMP2; ref [13]; cited from earlier work
Nluc–GLP-1R [4] = target: T1, Nluc–GLP-1R; type: cell-based; set-up: signal peptide of murine serotonin 5-HT3R (sig) (N); expressed in transfected cells; host or cells: HEK293T; details: HEK293T, absence of RAMP3
Nluc–GLP-1R [5] = target: T1, Nluc–GLP-1R; type: cell-based; set-up: signal peptide of murine serotonin 5-HT3R (sig) (N); expressed in transfected cells; host or cells: HEK293T; details: HEK293T; over the concentration range tested
GLP-1R–Nluc (human) = GLP-1R–Nluc (human) (UniProt P43220)
CLR–RAMP1 = details: ref [43]; cited from earlier work
Excerpt: As RAMP3 expression varies between tissues, it is possible that by directly targeting this complex, tissue-specific receptor activation could be facilitated. […] Agonists that have reduced affinity for the RAMP3 complex over the receptor alone ...

GIPR = details: Min6 B1, 8-min stimulation, n = 4
INS-1 832/3 cells [6] = details: 10 nM GIP, […] glucose
Min6 B1 cells = assay: Insulin secretion in siRNA-treated Min6 B1 cells; details: 10 nM and 1 nM agonist, n = 4

GLP-1R–Nluc (human), sequence (P43220 24-463): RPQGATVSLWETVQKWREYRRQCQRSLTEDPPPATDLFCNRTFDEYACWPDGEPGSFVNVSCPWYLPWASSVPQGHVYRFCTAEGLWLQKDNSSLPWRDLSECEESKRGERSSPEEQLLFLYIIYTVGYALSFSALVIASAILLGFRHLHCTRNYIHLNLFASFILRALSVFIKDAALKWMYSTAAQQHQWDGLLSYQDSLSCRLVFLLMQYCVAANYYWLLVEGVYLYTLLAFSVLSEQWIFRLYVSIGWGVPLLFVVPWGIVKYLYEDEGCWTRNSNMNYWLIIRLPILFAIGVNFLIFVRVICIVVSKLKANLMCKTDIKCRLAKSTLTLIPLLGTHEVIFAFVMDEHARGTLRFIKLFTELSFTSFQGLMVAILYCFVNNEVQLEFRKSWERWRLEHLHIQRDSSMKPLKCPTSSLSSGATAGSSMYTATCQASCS
T1 sequence (P43220 24-463): as above

Semaglutide
protection against neurodegeneration and neuroinflammation [1]: protect against neurodegeneration and neuroinflammation

CC(C)(C)c1cc(C(=O)/C(C#N)=N/Nc2cccc(Cl)c2)no1 [ESI-09]
effect of inhibitor on GLP-1-mediated insulin secretion (INS-1 832/3 cells [2]): significantly decreased; also recorded: significantly reduced insulin secretion

exendin-4 (from UniProt P26349 48-87) (peptide)
Ca^2+ mobilization, HEK293T, + 2xFLAG-RAMP3; pEC50 (Nluc–GLP-1R [3]): 8.6 pEC50
Ca^2+ mobilization, HEK293T, receptor alone; pEC50 (Nluc–GLP-1R [3]): 6.9 pEC50
cAMP accumulation, 8-min stimulation, HEK293T, + 2xFLAG-RAMP3; pEC50 (Nluc–GLP-1R [3]): 11.3 pEC50
cAMP accumulation, 8-min stimulation, HEK293T, + FLAG-RAMP3; pEC50 (Nluc–GLP-1R [3]): 11.6 pEC50
cAMP accumulation, 8-min stimulation, HEK293T, receptor alone; pEC50 (Nluc–GLP-1R [3]): 11.7 pEC50
cAMP accumulation, 30-min stimulation, HEK293T, + 2xFLAG-RAMP3; pEC50 (Nluc–GLP-1R [3]): 12.4 pEC50
cAMP accumulation, 30-min stimulation, HEK293T, + FLAG-RAMP3; pEC50 (Nluc–GLP-1R [3]): 12.8 pEC50
cAMP accumulation, 30-min stimulation, HEK293T, receptor alone; pEC50 (Nluc–GLP-1R [3]): 13.1 pEC50

glucagon: agonist of GCGR (cited)
effect of RAMP2 on Gαs coupling/response at GCGR (GCGR with RAMP2): increasing Gαs coupling

GLP-1 (9–36)
(Ca^2+)i mobilization (Nluc–GLP-1R [4]): unable to elicit any (Ca^2+)i mobilization
cAMP production (Nluc–GLP-1R [5]): did not elicit sufficient cAMP production over the concentration range tested

C=C1C(=O)NC(C)C(=O)N(C)C(C)C(=O)NC(C(OC(=O)C(NC(C)=O)C(O)C(C)C)C(C)C)C(=O)N(C)C(C(C)OC)C(=O)OC(C)C(NC(C)=O)C(=O)OC(Cc2ccccc2)C(=O)N1C (stereo not shown) [YM-254890] (Ac-T[PhLac][NMeDha]A[NMeA][X1][NMeT](Me); ester 1-C; configuration not given here)
effect of inhibitor on GLP-1-mediated insulin secretion, RAMP3 vs vector (INS-1 832/3 cells [2]; YM-254890 100 nM, PTX 0.2 ng/μl): decreased insulin secretion significantly only when RAMP3 was overexpressed; also recorded: only reduced insulin secretion in cells overexpressing RAMP3

liraglutide (peptide)
Ca^2+ mobilization, HEK293T, + 2xFLAG-RAMP3; pEC50 (Nluc–GLP-1R [3]): 7.5 pEC50
Ca^2+ mobilization, HEK293T, + FLAG-RAMP3; pEC50 (Nluc–GLP-1R [3]): 7.4 pEC50
Ca^2+ mobilization, HEK293T, receptor alone; pEC50 (Nluc–GLP-1R [3]): 7.5 pEC50
cAMP accumulation, 8-min stimulation, HEK293T, + 2xFLAG-RAMP3; pEC50 (Nluc–GLP-1R [3]): 9.9 pEC50
cAMP accumulation, 8-min stimulation, HEK293T, + FLAG-RAMP3; pEC50 (Nluc–GLP-1R [3]): 10.3 pEC50
cAMP accumulation, 30-min stimulation, HEK293T, + 2xFLAG-RAMP3; pEC50 (Nluc–GLP-1R [3]): 10.1 pEC50
cAMP accumulation, 30-min stimulation, HEK293T, + FLAG-RAMP3; pEC50 (Nluc–GLP-1R [3]): 10.3 pEC50
cAMP accumulation, 30-min stimulation, HEK293T, receptor alone; pEC50 (Nluc–GLP-1R [3]): 10.4 pEC50
internalization (loss of BRET with RIT-Venus), HEK293T, + 2xFLAG-RAMP3; pEC50 (GLP-1R–Nluc (human)): 7.6 pEC50
internalization (loss of BRET with RIT-Venus), HEK293T, + FLAG-RAMP3; pEC50 (GLP-1R–Nluc (human)): 8.2 pEC50
internalization (loss of BRET with RIT-Venus), HEK293T, receptor alone; pEC50 (GLP-1R–Nluc (human)): 8.5 pEC50
β-arrestin1–YFP recruitment (BRET), HEK293T, + 2xFLAG-RAMP3; pEC50 (GLP-1R–Nluc (human)): 7.5 pEC50
β-arrestin1–YFP recruitment (BRET), HEK293T, + FLAG-RAMP3; pEC50 (GLP-1R–Nluc (human)): 7.1 pEC50
β-arrestin1–YFP recruitment (BRET), HEK293T, receptor alone; pEC50 (GLP-1R–Nluc (human)): 7 pEC50
β-arrestin2–YFP recruitment (BRET), HEK293T, + 2xFLAG-RAMP3; pEC50 (GLP-1R–Nluc (human)): 7.5 pEC50
β-arrestin2–YFP recruitment (BRET), HEK293T, + FLAG-RAMP3; pEC50 (GLP-1R–Nluc (human)): 7.1 pEC50
β-arrestin2–YFP recruitment (BRET), HEK293T, receptor alone; pEC50 (GLP-1R–Nluc (human)): 7.3 pEC50

NCCCC[C@H](NC(=O)[C@@H](Cc1cc(Br)c(O)c(Br)c1)NC(=O)N1CCC(N2Cc3ccccc3NC2=O)CC1)C(=O)N1CCN(c2ccncc2)CC1 [BIBN 4096 BS]
disruption of receptor–RAMP interaction (CLR–RAMP1): disrupt the interaction

glucose-dependent insulinotropic polypeptide [GIP]
effect of RAMP3 siRNA on cAMP accumulation (GIPR): no effect
effect of RAMP1 transfection on insulin secretion (INS-1 832/3 cells [6]): increased insulin secretion
effect of RAMP3 transfection on insulin secretion (INS-1 832/3 cells [6]): increased insulin secretion
effect of RAMP3 knockdown on insulin secretion (Min6 B1 cells): unaffected

Nc1ncnc2c1nc(Br)n2C1OC2COP(O)(=S)OC2C1O (stereo not shown) [Rp-8-Br-cAMPs]
effect of inhibitor on GLP-1-mediated insulin secretion (INS-1 832/3 cells [2]): no effect; also recorded: unaffected
